Experimental findings from the nanobody polyreactivity screen of Harvey et al. (2022) are described below.

This data set in a line: yeast display, Sf9 membrane polyspecificity reagent, FACS + sequencing; frameworks hold sequencing errors. An outline of the steps: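 In a synthetic yeast display library (Saccharomyces cerevisiae BJ5465), nanobody expression was induced with galactose for 36–48 hours. FACS gates were set low and high (top ~1%) using anti-HA fluorescence for expression and streptavidin fluorescence for binding of the Sf9 membrane reagent. Each polyreactivity label is drawn from the gate of origin.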
Take “QVQLVESGGGLVQAGGSLRLSCAASGLTFYYYAMGWYRQAPGKERELVATISGSGGNTYYADSVKGRFTISRDNAKNTVYLQMNSLKPEDTAVYYCNARYRWWLYYSRDRVYCWGQGTQVTVSS”: the “polyreactivity (PSR sort gate)” value is reported as “high polyreactivity”. For the sequence “QVQLVESGGGLVQAGGSLRLSCAASGLTFYYYAMGWYRQAPGKERELVATISSGGGRTYADSVKGRFTISRDNAKNTVYLQMNSLKPEDTAVYYCAVRNTKSYWFGYWGQGTQVTVSS”, the “polyreactivity (PSR sort gate)” value was “high polyreactivity”. With “QVQLVESGGGLVQAGGSLRLSCAASGLTIASYVMGWYRQAPGKERELVAAISSSGDSTYYADSVKGRFTISRDNAKNTVYLQMNSLKPEDTAVYYCAAKDSVWGQGTQVTVSS” the entry was “low polyreactivity”. To “QVQLVESGGGLVQAGGSLRLSCAASGLTIQLYAMGWYRQAPGKERELVAAISGSGGRTYYADSVKGRFTISRDNAKNTVYLQMNSLKPEDTAVYYCAARPGSGRSYTSDYWGQGTEVTVSS” belongs “high polyreactivity”; to “QVQLVESGGGLVQAGGSLRLSCAASGLTIVGNAMGWYRQAPGKERELVASISSRGGSTYYADSVKGRFTISLDNSKNTVYLQMNSLNPEDTAVYYCAAGNSYGVRLLYQIVTRYYWGQGTQVTVSS”, “high polyreactivity”; to “QVQLVESGGGLVQAGGSLRLSCAASGLTIWRHAMGWYRQAPGKEREFVATISQNGGRTYYADSVKGRFTISRDNAKNTVYLQMNSLKPEDTAVYYCAADDWRWRYDYWGQGTQVTVSS”, “high polyreactivity”.

“QVQLVESGGGLVQAGGSLRLSCAASGLTIWRYAMGWYRQAPGKETEFVASISQNGGRTDYADSVKGRFTISRDNAKNTVYLQMNSLKPEDTAVYYCAARRYYGVYYAFYFWRQGTQVTVSS”: the “polyreactivity (PSR sort gate)” value is “high polyreactivity”.

Take “QVQLVESGGGLVQAGGSLRLSCAASGLTLAPYAMGWYRQAPGKERELVAAITFSGGSTYYADSVKGRLSISRDNAKNTVYLQMNSLKPEDTAVYYCARDTWAYKNGYPYYSWGQGTQVTVSS”: the “polyreactivity (PSR sort gate)” value is reported as “low polyreactivity”.

With “QVQLVESGGGLVQAGGSLRLSCAASGLTLAWYAMGWYRQAPGKERELVAAISWSGDSTYYADSVKGRFTISRDNAKNTVYLQMNSLKPEDTAVYYCATRVYGGYGYWGQGTQVTVSS”, the “polyreactivity (PSR sort gate)” value was “high polyreactivity”. With “QVQLVESGGGLVQAGGSLRLSCAASGLTLDYYAMGWSRQGPGKERELVAVIRGRSGSTYYADSVKGRFTISRDNAKNTDYLQMNSLKPEDTAVYYGARVTTYGDYYWGQGTQVTVSS” the entry was “high polyreactivity”.

As for “QVQLVESGGGLVQAGGSLRLSCAASGLTLFRYAMGWYRQAPGKERELVAAIDYGGGTYYADSVKGRFTISRDNAKNTVYLQMNSLKPEDTAVYYCAVEPEYKYYEGDYWGQGTQVTVSS”, the “polyreactivity (PSR sort gate)” value is recorded as “low polyreactivity”. To “QVQLVESGGGLVQAGGSLRLSCAASGLTLKYYAMGWYRQAPGKERELVAAITYSGGSTYYADSVKGRFTFSRDNAKNTVYLQMNSLIPEDTAVFYCNAGPSVTSGYDYDYWGQGTQVTVSS” belongs “low polyreactivity”; to “QVQLVESGGGLVQAGGSLRLSCAASGLTLRCNTMGWYRQAPGKERELVADITASAGSTYYADSVKGRFTISRDNAKNTVYLQMISLKPEDTAVYYCAARVYIAYISMDHWGQGTQVTVSS”, “low polyreactivity”; to “QVQLVESGGGLVQAGGSLRLSCAASGLTLRRYAMGWYRQAPGKERELVASINSGTSTKYADSVKGRFTISRDNAKNTVYLQMNSLKPEDTAVYYCAAAGYFPTAGSRRAYYYWGQGTQVTVSS”, “high polyreactivity”. To “QVQLVESGGGLVQAGGSLRLSCAASGLTLSGYAMGWYRQAPGKERELVAAISSTGGSTYYADSVKGRFTISRDNAKNTVYLQMNSLKPEDTAVYYCAKGFSPTRVRLRYPRYDTYNHWGQGTQVTVSS” belongs “high polyreactivity”; to “QVQLVESGGGLVQAGGSLRLSCAASGLTLSYNAMGWYRQAPGKERELVAAIRSGGSTNYADSVKGRFTISRDNAKNTVYLQMNSLKPEDTAVYYCAARFRYLPYRYGRYQSGYEYWGLGTQVTVSS”, “high polyreactivity”; to “QVQLVESGGGLVQAGGSLRLSCAASGLTLTHYAMGWYRQAPGKERELVATISRSGGRTYYADSVKGRFTISRDNAKNTVYLQMNSLKPEDTAVYYCNAEYYYGRGWYDYWGQGTQVTVSS”, “high polyreactivity”.

In the case of “QVQLVESGGGLVQAGGSLRLSCAASGLTLYKNGMGWYRQAPGKERELVAVISRSGGRTYYADSVKGRFTISRDNAKNTVYVQMNSLKPEDTAVYYCAARQYGPRYTYYYWGQGTQVTVSS”, the “polyreactivity (PSR sort gate)” value is “high polyreactivity”. With “QVQLVESGGGLVQAGGSLRLSCAASGLTSLSYAIGWYRQAPGKERELVAAITLSGCRTYYADSVKGRFTISRDNAKNTVYLQMNSLIPEDTAVYFCAVAGYWYSYGRKYLTTFEYWGQGTQVTVSS” the entry was “high polyreactivity”. To “QVQLVESGGGLVQAGGSLRLSCAASGLTSNGYDMGWYRQAPGKERELVAGITSGGSPYYADSVKGRFTISRDNAKNTVYLQMNSLKPEDTAVYYCNADVTYYIVWEYDYWGQGTQVTVSS” belongs “low polyreactivity”.

Consider “QVQLVESGGGLVQAGGSLRLSCAASGLTSNGYHMGWYRQAPGKERELVAGITSGGSTYYADSVKGRFTISRDNAKNTVYLQMNSLKPEDTAVYYCNADVTYYIVWEYDYWGQGTQVTVSS”, for which the “polyreactivity (PSR sort gate)” value was “low polyreactivity”. With “QVQLVESGGGLVQAGGSLRLSCAASGLTSWYYAMGWYRQAPGKERELVAAITSGGSTYYADSVKGRFTISRDNAKNTVYLQMNSLKPEDTAVYYCAKKKRSYYYYPYDYWGQGTQVTVSS” the entry was “high polyreactivity”; with “QVQLVESGGGLVQAGGSLRLSCAASGLTYNRYTMGWYRQAPGKERELVAAITSSGSTYYADSVKGRFTISRDNAKYTVYLQMNSLKPEDTAVYYCNTVYYDWFHYDYWGQGTQVTVSS”, “high polyreactivity”; with “QVQLVESGGGLVQAGGSLRLSCAASGLTYSNAMGCYRQAPGKERELVAAISWRGGRTYYADSVKGRFTISRDNAKNTVYLQMNSLKPEDTAVYYCAKYAHGHKWYGYWGQGNQVTVSS”, “low polyreactivity”. To “QVQLVESGGGLVQAGGSLRLSCAASGLYAMGWYRQAPGKERELVADINSSGGSITNYADSVKGRFTISRDNAKNTVYLQMNSLKPEDTAVYYCAAPALGNYFYGYDYWGQGTQVTVSS” belongs “low polyreactivity”; to “QVQLVESGGGLVQAGGSLRLSCAASGMIFYTYVMGWYRQAPGKEREFVAGISTSGGRTDYADSVKGRFTISRDNAKNTVYLQMNSLKPEDTAVYYCNADYWQWYSYWYDYWGQGTQVTVSS”, “high polyreactivity”; to “QVQLVESGGGLVQAGGSLRLSCAASGMTFGLYAMGWYRQAPGKERELVAAISKRGGSTNYADSVKGRFTISRDNAKNTVYLQMNSLKPEDTAGYYCAARYPQRGTGKATYVRSRSGYWGLGTQVTVSS”, “high polyreactivity”. With “QVQLVESGGGLVQAGGSLRLSCAASGNAMGWYRQAPGKERELVAAITYGGTTTYYADTVKGRFTISRDNAKNTVYLQMTSQKPEDTAVYYCAADNVSVATPLRYDYWGQGTQVTVSS” the entry was “low polyreactivity”. “QVQLVESGGGLVQAGGSLRLSCAASGNAMGWYRQAPGKERELVASINRSGGRTYYADSVKGRFTISRDNAKNTVYLQMISLKPEDTAVYYCGARPHYDSDYWGQGTQVTVSS”: the “polyreactivity (PSR sort gate)” value is reported as “low polyreactivity”.

As for “QVQLVESGGGLVQAGGSLRLSCAASGNIFADYVMGWYRQAPGKERELVAAIDKSGGRTYYADSVKGRFTISRDNAKNTVYLQMNSLKPEDTAVYYCSAYDRYRRMDYWGQGTQVTVSS”, the “polyreactivity (PSR sort gate)” value is listed as “high polyreactivity”.
